This is an account of results in paper PMC5223167.

The labels stand for the following.
T1: PPE2 (Mycobacterium tuberculosis (BAC-Rv329 …, UniProt P9WI47))
T1 sequence: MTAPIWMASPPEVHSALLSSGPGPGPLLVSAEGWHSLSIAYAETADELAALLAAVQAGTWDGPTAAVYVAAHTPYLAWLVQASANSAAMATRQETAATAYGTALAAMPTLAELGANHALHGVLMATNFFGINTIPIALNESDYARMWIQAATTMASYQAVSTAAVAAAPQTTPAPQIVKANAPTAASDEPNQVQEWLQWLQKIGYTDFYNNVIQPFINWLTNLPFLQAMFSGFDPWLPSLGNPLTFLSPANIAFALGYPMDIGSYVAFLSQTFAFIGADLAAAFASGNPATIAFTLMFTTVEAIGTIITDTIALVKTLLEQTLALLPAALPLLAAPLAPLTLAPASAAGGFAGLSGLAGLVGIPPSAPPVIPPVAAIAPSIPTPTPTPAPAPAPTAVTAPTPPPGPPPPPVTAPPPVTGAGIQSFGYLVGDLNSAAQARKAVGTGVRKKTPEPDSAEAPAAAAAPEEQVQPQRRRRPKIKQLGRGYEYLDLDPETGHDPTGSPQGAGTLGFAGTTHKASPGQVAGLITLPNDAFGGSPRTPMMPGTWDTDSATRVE

B1: NF-kB consensus (dsDNA)
DNA 1: AGTTGAGGGGACTTTCCCAGGC
DNA 2: GCCTGGGAAAGTCCCCTCAACT
B2: inos proximal GATA-1 element (overlaps TATA box) (dsDNA)
DNA 1: GGGGTATAAATACCTGATGGCTGCTGCCAG
DNA 2: CTGGCAGCAGCCATCAGGTATTTATACCCC
B3: IRF-1 consensus (dsDNA)
DNA 1: CACTGTCAATATTTCACTTTCATAATG
DNA 2: CATTATGAAAGTGAAATATTGACAGTG
B4: GATA consensus (dsDNA)
DNA 1: CACTTGATAACAGAAAGTGATAACTCT
DNA 2: AGAGTTATCACTTTCTGTTATCAAGTG

The target of this series is T1, PPE2. The series can be described thus: EMSA; 20 mM HEPES (pH not stated), 0.5 mM DTT, 0.5 mM EDTA, 5% glycerol, room temperature, 30 min; […]. The following applies: protein: recombinant; tags: N-terminal His (pRSET A); label: 32P 5' end; blunt. In general terms: In EMSA bound probe runs differently from free probe, usually more slowly.
Take B1: the binding result is “no binding”.
As for B2, the binding result is reported as “binds”.
The result for B3 reads “no binding”.
As to B4, the binding result is given as “binds”.
